Residue numbers refer to the chain shown, from its start.
B1: CD3B2035 (scFv)
scFv: QVQLVQSGAEVKKPGSSVKVSCKASGYTFTRSTMHWVKQAPGQGLEWMGYINPSSAYTNYNQKFQGRVTLTADKSTSTAYMELSSLRSEDTAVYYCASPQVHYDYNGFPYWGQGTLVTVSSGGSEGKSSGSGSESKSTGGSEIVLTQSPATLSASPGERVTLSCSASSSVSYMNWYQQKPGQAPRRWIYDSSKLASGVPARFSGSGSGRDYTLTISSLEPEDFAVYYCQQWSRNPPTFGGGTKVEIK
B2: CD3B2037 (scFv)
scFv: B1 scFv with N61A, Q182T, A183S, W187L
B3: CD3B2062 (scFv)
scFv: B1 scFv with M48I, N61A, Q182T, A183S, W187L
B4: CD3B2031 (scFv)
scFv: B1 scFv with Q182T
B5: CD3B2045 (scFv)
scFv: B1 scFv with K38R, M48I
B6: CD3B2042 (scFv)
scFv: B1 scFv with K38R, M48I, Q182T, A183S, W187L
B7: CD3B2044 (scFv)
scFv: B1 scFv with K38R, M48I, A183S
B8: CD3B2083 (scFv)
scFv: B1 scFv with K38R, N61A, A183S, W187L
B9: CD3B2067 (scFv)
scFv: B1 scFv with K38R, A183S, W187L
B10: CD3B2060 (scFv)
scFv: B1 scFv with M48I, N61A, W187L
B11: CD3B2074 (scFv)
scFv: B1 scFv with K38R, M48I, N61A, Q182T, A183S
B12: CD3B2076 (scFv)
scFv: B1 scFv with K38R, M48I, N61A, W187L
B13: CD3B2084 (scFv)
scFv: B1 scFv with K38R, N61A, W187L
B14: CD3B2029 (scFv)
scFv: B1 scFv with M48I, A183S
B15: CD3B2034 (scFv)
scFv: B1 scFv with A183S
B16: CD3B2043 (scFv)
scFv: B1 scFv with K38R, M48I, Q182T, W187L
B17: CD3B2058 (scFv)
scFv: B1 scFv with M48I, N61A, Q182T, A183S
B18: CD3B2033 (scFv)
scFv: B1 scFv with Q182T, W187L
B19: CD3B2075 (scFv)
scFv: B1 scFv with K38R, M48I, N61A, A183S, W187L
B20: CD3B2066 (scFv)
scFv: B1 scFv with K38R, Q182T, A183S
B21: CD3B2038 (scFv)
scFv: B1 scFv with N61A, Q182T, W187L
B22: CD3B2061 (scFv)
scFv: B1 scFv with M48I, N61A, Q182T
B23: CD3B2041 (scFv)
scFv: B1 scFv with K38R, M48I, Q182T
B24: CD3B2070 (scFv)
scFv: B1 scFv with K38R, Q182T, A183S, W187L
B25: CD3B2039 (scFv)
scFv: B1 scFv with N61A, A183S
B26: CD3B2068 (scFv)
scFv: B1 scFv with K38R, W187L

Target: T1, TRCW5 antigen (CD3δε-Fc-Avi) (biotinylated (site not stated))
T1 construct: also called recombinant CD3
T1 sequence (chain, as listed by the source mutant limits assumed): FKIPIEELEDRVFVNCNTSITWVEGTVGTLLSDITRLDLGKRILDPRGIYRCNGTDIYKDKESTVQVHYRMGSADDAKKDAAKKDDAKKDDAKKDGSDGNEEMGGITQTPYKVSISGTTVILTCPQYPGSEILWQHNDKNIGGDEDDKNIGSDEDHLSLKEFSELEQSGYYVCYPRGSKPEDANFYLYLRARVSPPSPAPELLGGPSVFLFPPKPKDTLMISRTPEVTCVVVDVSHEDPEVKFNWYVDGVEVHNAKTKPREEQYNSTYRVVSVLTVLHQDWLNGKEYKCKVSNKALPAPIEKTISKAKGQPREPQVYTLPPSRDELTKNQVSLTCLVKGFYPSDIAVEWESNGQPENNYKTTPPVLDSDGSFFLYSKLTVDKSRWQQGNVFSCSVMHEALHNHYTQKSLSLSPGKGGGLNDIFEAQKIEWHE
Test: ELISA after heat

Row | Binder | % Retained 55° C. | % Retained 60° C. | % Retained 65° C.
1 | B1 | 110% | 112% | 47%
2 | B2 | 102% | 103% | 23%
3 | B3 | 110% | 102% | 14%
4 | B4 | 108% | 104% | 36%
5 | B5 | 111% | 105% | 28%
6 | B6 | 96% | 83% | 2%
7 | B7 | 103% | 102% | 14%
8 | B8 | 104% | 84% | 4%
9 | B9 | 98% | 63% | 5%
10 | B10 | 107% | 100% | 21%
11 | B11 | 104% | 101% | 6%
12 | B12 | 100% | 82% | 7%
13 | B13 | 108% | 91% | 9%
14 | B14 | 100% | 97% | 29%
15 | B15 | 103% | 103% | 38%
16 | B16 | 100% | 88% | 4%
17 | B17 | 112% | 110% | 20%
18 | B18 | 100% | 84% | 11%
19 | B19 | 103% | 87% | 6%
20 | B20 | 109% | 109% | 11%
21 | B21 | 105% | 98% | 22%
22 | B22 | 116% | 107% | 9%
23 | B23 | 104% | 97% | 16%
24 | B24 | 107% | 82% | 6%
25 | B25 | 111% | 103% | 44%
26 | B26 | 103% | 88% | 10%

Target: T2, CD3 on primary human pan T cells (human, UniProt P07766 23-207)
T2 construct: on cells it stands in the TCR/CD3 complex; also called Pan T-cells (CD3-positive); endogenous CD3
T2 sequence (P07766 23-207 limits assumed): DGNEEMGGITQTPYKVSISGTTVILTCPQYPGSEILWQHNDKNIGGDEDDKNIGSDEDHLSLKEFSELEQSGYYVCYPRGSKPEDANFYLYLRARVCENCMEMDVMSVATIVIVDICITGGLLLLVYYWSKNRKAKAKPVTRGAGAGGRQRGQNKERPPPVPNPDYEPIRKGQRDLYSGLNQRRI
Test: flow cytometry, pan T-cells
Experimental: ELISA assays for binding to recombinant CD3 (TRCW5, SEQ ID NO: 39) were performed as above. Cell binding was performed using primary human T cell and Jurkat cells by flow cytometry. Briefly, E. coli expressed anti CD3 ScFv supernatants, either at room temperature, or 55° C., 60° C. or 65° C. heat treated samples.
Pan T-cells (CD3-positive) and Jurkat-CD3-negative cells were prepared by staining Jurkat-CD3-negative cells with CFSE while keeping pan T-cells unstained. Jurkat-CD3-negative cell suspensions were resuspended at 20 million cells per each 50 mL conical tube. Cells were harvested by centrifugation at 400×g for 5 minutes and resuspended in DPBS followed by washing 2× in DPBS. Cells were stained with 1:25,000 dilution for a final dye concentration of 0.02 uM CFSE (2 uL of staining solution to 50 mL of cell suspension). Cells were incubated for 10 minutes at room temperature and centrifuged for 5 minutes at 400×g. After removal of supernatant, 3 mL of HI-FBS were added to the cell pellet, mixed and centrifuged for 5 min at 400×g. Supernatant was removed and cells were resuspended in BD stain buffer at 2×10\hat{ }6 cells/mL and incubated on ice or 4 C protected from light. Human pan T cells were thawed at 37 C and transferred gently into a conical tube containing 15 mL of warm or RT culture media (RPMI+10% FBS). […] Cells were harvested by centrifugation at 400×g for 5 min and resuspended in culture media (RPMI+10% HI-FBS). Pan T-cells (without staining) were prepared at 2×10\hat{ }6 cells/mL in flow staining buffer. Equal volumes of CFSE stained Jurkat-CD3-negative cells and unstained T-cells (CD3-positive) cells were mixed and plated 50 uL/well into assay plates. 50 uL/well neat bacterial supernatant samples and control sample (CD3W36 ScFv) were added to each well and plates were incubated 1 hr at 4 C or. Cells were harvested by centrifugation at 400×g for 4 min and 150 uL staining buffer were added to all wells, followed by centrifugation at 400×g for 4 min to pellet cells. To each well, 150 uL staining buffer were added followed by centrifugation at 400×g for 4 minutes to pellet cells.

Row | Binder | % Binding retained on T-cells, 55° C. | % Binding retained on T-cells, 60° C. | % Binding retained on T-cells, 65° C. | % Binding retained on T-cells, RT
27 | B1 | 1.06 fraction | 1.14 fraction | 0.455 fraction | 1 fraction
28 | B2 | 1.07 fraction | 0.986 fraction | 0.061 fraction | 1 fraction
29 | B4 | 1.12 fraction | 1.2 fraction | 0.543 fraction | 1 fraction
30 | B5 | 1.05 fraction | 0.997 fraction | 0.296 fraction | 1 fraction
31 | B6 | 0.993 fraction | 0.935 fraction | 0.0842 fraction | 1 fraction
32 | B7 | 0.786 fraction | 1.04 fraction | 0.198 fraction | 1 fraction
33 | B14 | 1.06 fraction | 1.08 fraction | 0.329 fraction | 1 fraction
34 | B15 | 0.866 fraction | 0.784 fraction | 0.387 fraction | 1 fraction
35 | B16 | 0.991 fraction | 0.906 fraction | 0.0805 fraction | 1 fraction
36 | B17 | 1.05 fraction | 0.808 fraction | 0.174 fraction | 1 fraction
37 | B18 | 1.07 fraction | 1 fraction | 0.295 fraction | 1 fraction
38 | B21 | 1.03 fraction | 1.1 fraction | 0.279 fraction | 1 fraction
39 | B23 | 1.06 fraction | 1.11 fraction | 0.447 fraction | 1 fraction
40 | B25 | 1.3 fraction | 1 fraction | 0.609 fraction | 1 fraction
